In article PMC8424649 (2021):

B1: GFP-FAN1, full-length FAN1 (FAN1^FL) [human] / MLH1 (endogenous, human) [human (endogenous in iPSCs, lymphoblastoid cells, U2OS, HEK293T, MSNs, HeLa)] (parent complex)
chain 1: MMSEGKPPDKKRPRRSLSISKNKKKASNSIISCFNNAPPAKLACPVCSKMVPRYDLNRHLDEMCANNDFVQVDPGQVGLINSNVSMVDLTSVTLEDVTPKKSPPPKTNLTPGQSDSAKREVKQKISPYFKSNDVVCKNQDELRNRSVKVICLGSLASKLSRKYVKAKKSIDKDEEFAGSSPQSSKSTVVKSLIDNSSEIEDEDQILENSSQKENVFKCDSLKEECIPEHMVRGSKIMEAESQKATRECEKSALTPGFSDNAIMLFSPDFTLRNTLKSTSEDSLVKQECIKEVVEKREACHCEEVKMTVASEAKIQLSDSEAKSHSSADDASAWSNIQEAPLQDDSCLNNDIPHSIPLEQGSSCNGPGQTTGHPYYLRSFLVVLKTVLENEDDMLLFDEQEKGIVTKFYQLSATGQKLYVRLFQRKLSWIKMTKLEYEEIALDLTPVIEELTNAGFLQTESELQELSEVLELLSAPELKSLAKTFHLVNPNGQKQQLVDAFLKLAKQRSVCTWGKNKPGIGAVILKRAKALAGQSVRICKGPRAVFSRILLLFSLTDSMEDEDAACGGQGQLSTVLLVNLGRMEFPSYTINRKTHIFQDRDDLIRYAAATHMLSDISSAMANGNWEEAKELAQCAKRDWNRLKNHPSLRCHEDLPLFLRCFTVGWIYTRILSRFVEILQRLHMYEEAVRELESLLSQRIYCPDSRGRWWDRLALNLHQHLKRLEPTIKCITEGLADPEVRTGHRLSLYQRAVRLRESPSCKKFKHLFQQLPEMAVQDVKHVTITGRLCPQRGMCKSVFVMEAGEAADPTTVLCSVEELALAHYRRSGFDQGIHGEGSTFSTLYGLLLWDIIFMDGIPDVFRNACQAFPLDLCTDSFFTSRRPALEARLQLIHDAPEESLRAWVAATWHEQEGRVASLVSWDRFTSLQQAQDLVSCLGGPVLSGVCRHLAADFRHCRGGLPDLVVWNSQSRHFKLVEVKGPNDRLSHKQMIWLAELQKLGAEVEVCHVVAVGAKSQSLS
chain 2: MSFVAGVIRRLDETVVNRIAAGEVIQRPANAIKEMIENCLDAKSTSIQVIVKEGGLKLIQIQDNGTGIRKEDLDIVCERFTTSKLQSFEDLASISTYGFRGEALASISHVAHVTITTKTADGKCAYRASYSDGKLKAPPKPCAGNQGTQITVEDLFYNIATRRKALKNPSEEYGKILEVVGRYSVHNAGISFSVKKQGETVADVRTLPNASTVDNIRSIFGNAVSRELIEIGCEDKTLAFKMNGYISNANYSVKKCIFLLFINHRLVESTSLRKAIETVYAAYLPKNTHPFLYLSLEISPQNVDVNVHPTKHEVHFLHEESILERVQQHIESKLLGSNSSRMYFTQTLLPGLAGPSGEMVKSTTSLTSSSTSGSSDKVYAHQMVRTDSREQKLDAFLQPLSKPLSSQPQAIVTEDKTDISSGRARQQDEEMLELPAPAEVAAKNQSLEGDTTKGTSEMSEKRGPTSSNPRKRHREDSDVEMVEDDSRKEMTAACTPRRRIINLTSVLSLQEEINEQGHEVLREMLHNHSFVGCVNPQWALAQHQTKLYLLNTTKLSEELFYQILIYDFANFGVLRLSEPAPLFDLAMLALDSPESGWTEEDGPKEGLAEYIVEFLKKKAEMLADYFSLEIDEEGNLIGLPLLIDNYVPPLEGLPIFILRLATEVNWDEEKECFESLSKECAMFYSIRKQYISEESTLSGQQSEVPGSIPNSWKWTVEHIVYKALRSHILPPKHFTEDGNILQLANLPDLYKVFERC

Variants of: B1
Assay: GFP-Trap pull-down, quantified immunoblot; U2OS cell extracts; n = 5 biological replicates; parent: 100; read off a plot

First: chain 1 S126A
Second: chain 1 F129A
The percent of parent of the first is higher: roughly 10 for the first, roughly 5 for the second.

Going from chain 1 Q123A to chain 1 Y128A, the percent of parent falls from roughly 110 to roughly 1.
